Data reported in the supplement of paper PMC10126150.
± gives the standard deviation of the averaged measurements.

system: ATP; assay: switch fluorescence ratio, 500 uM ATP over buffer (Cy3 cluster intensity, sum of 5 cycles each) (fold (ratio)); higher = stronger signal-on switching upon ATP binding; sequences stand for … in TCGTCGGCAGCGTCAGATGTGTATAAGAGACAGTTTTTTTTTTTTTTTTTTTTTTTTT…TC; conditions: aptamer strand: ATP DNA aptamer (quencher-CACCTGGGGGAGTATTGCGGAGGAAGG + anchor), 100 nM annealed; ATP concentration: 500 uM
Method in brief: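 After annealing to 100 nM quencher-labelled ATP aptamer, Cy3-labelled switching-strand clusters on a modified Illumina MiSeq flow-cell were imaged in selection buffer. A second image followed after 15 min with 500 uM ATP at 22 °C, and five such buffer/ATP cycles were done, each separated by NaOH stripping and re-annealing. The fluorescence ratio, averaged per switch-domain sequence, is summed target-cycle over summed buffer-cycle Cy3 intensity per cluster, with clusters outside 100-1000 RFU excluded.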
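Further: ATP exposure 15 min at 22 °C before imaging.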

Sequence	switch fluorescence ratio
TGGGGGGGGT	1.02 ± 0.18
TGGGGGGGTA	0.991 ± 0.026
TGGGGGGTCC	1.01 ± 0.039
TGGGGGGTGA	0.997 ± 0.049
TGGGGGTAAC	1.1 ± 0.18
TGGGGGTACT	1.01 ± 0.011
TGGGGGTATC	0.978 ± 0.024
TGGGGGTCGC	1.01 ± 0.019
TGGGGGTGAA	1.02 ± 0.018
TGGGGGTGAC	1.04 ± 0.038
TGGGGGTGCT	1 ± 0.013
TGGGGGTTAG	1.01 ± 0.021
TGGGGGTTGA	1.01 ± 0.028
TGGGGTAAAG	1.01 ± 0.033
TGGGGTAAGG	1.01 ± 0.022
TGGGGTAGGG	0.998 ± 0.026
TGGGGTAGTG	1.01 ± 0.025
TGGGGTATAG	1.01 ± 0.018
TGGGGTCAAG	0.991 ± 0.01
TGGGGTCTAG	0.969 ± 0.01
TGGGGTCTGG	0.976 ± 0.026
TGGGGTCTGT	0.993 ± 0.02
TGGGGTGCAG	1.03 ± 0.017
TGGGGTGCAT	0.993 ± 0.051
TGGGGTGTTT	0.983 ± 0.045

Sequence	switch fluorescence ratio
TGGGGTTATA	1.02 ± 0.023
TGGGGTTGGT	0.993 ± 0.018
TGGGGTTGTC	0.993 ± 0.034
TGGGGTTTGC	0.991 ± 0.032
TGGGTAAGGT	0.993 ± 0.028
TGGGTAATCA	0.981 ± 0.036
TGGGTAGAAA	0.975 ± 0.032
TGGGTAGGCG	1.02 ± 0.016
TGGGTATAAA	0.976 ± 0.029
TGGGTATAAC	1 ± 0.018
TGGGTATACG	1.01 ± 0.049
TGGGTATATT	0.987 ± 0.011
TGGGTATGT	1.03 ± 0.0087
TGGGTATTTT	1.01 ± 0.026
TGGGTCAATA	1.03 ± 0.054
TGGGTCCGCG	1.123 ± 0.0092
TGGGTCCTTG	0.9894 ± 0.0014
TGGGTGAAGC	0.991 ± 0.059
TGGGTGCGCG	1.014 ± 0.0063
TGGGTGCGGT	0.991 ± 0.012
TGGGTGGGCC	0.981 ± 0.023
TGGGTGTCGG	1.04 ± 0.019
TGGGTGTGGT	1 ± 0.025
TGGGTGTTAA	0.974 ± 0.055
TGGGTGTTGG	1.01 ± 0.057

Sequence	switch fluorescence ratio
TGGGTTAACA	0.991 ± 0.018
TGGGTTACCT	1.05 ± 0.01
TGGGTTAGCT	1.04 ± 0.039
TGGGTTAGTG	0.962 ± 0.017
TGGGTTCGAT	1.02 ± 0.015
TGGGTTGATG	0.959 ± 0.023
TGGGTTGGCA	0.987 ± 0.029
TGGGTTGTCG	1.02 ± 0.016
TGGGTTGTGT	0.988 ± 0.028
TGGGTTTCTA	0.964 ± 0.021
TGGGTTTGCG	0.982 ± 0.021
TGGGTTTGGT	1.01 ± 0.014
TGGGTTTTAG	0.977 ± 0.013
TGGTAAAGTG	1.08 ± 0.1
TGGTAATGGG	1.01 ± 0.049
TGGTAATTGG	0.98 ± 0.01
TGGTACGTAG	1.03 ± 0.034
TGGTACGTGG	0.974 ± 0.032
TGGTAGAGTT	1 ± 0.016
TGGTAGCAGT	0.989 ± 0.037
TGGTAGGGAA	0.982 ± 0.014
TGGTATAGTA	0.993 ± 0.019
TGGTATATTA	0.983 ± 0.027
TGGTATCGGA	0.977 ± 0.021
TGGTATGCGT	1.02 ± 0.024

Sequence	switch fluorescence ratio
TGGTATTATT	0.998 ± 0.024
TGGTATTGCT	0.9955 ± 0.0098
TGGTCCAGTG	1.03 ± 0.089
TGGTCCTGGT	0.997 ± 0.019
TGGTCGCCGT	0.978 ± 0.14
TGGTCGGTCT	1.07 ± 0.074
TGGTCGTCGG	0.985 ± 0.037
TGGTGAAAGA	1.01 ± 0.029
TGGTGAAAGT	0.982 ± 0.025
TGGTGAACGT	1 ± 0.053
TGGTGACTAG	0.967 ± 0.024
TGGTGCATTT	1.06 ± 0.14
TGGTGCTAAG	1.03 ± 0.02
TGGTGGAGTC	1.02 ± 0.046
TGGTGGATGG	1.22 ± 0.29
TGGTGGCTGG	0.989 ± 0.028
TGGTGGGCGA	1.04 ± 0.058
TGGTGGGGGA	0.987 ± 0.015
TGGTGGGTGC	1.04 ± 0.044
TGGTGGTCGC	0.9778 ± 0.0044
TGGTGTAAGA	1.04 ± 0.025
TGGTGTAAT	1 ± 0.03
TGGTGTTTGG	0.979 ± 0.032
TGGTTAAAAA	0.98 ± 0.049
TGGTTAATGC	1.48 ± 0.1
